According to US20080311122A1, “Antagonists of Hmgb1 and/or Rage and Methods of Use Thereof” (Medimmune, LLC, priority 2005, published 2008):

T1: recombinant HMG1 binding to RAGE-Fc (Homo sapiens, UniProt P09429)
T1 construct: made in house; host or cells: E. coli (HMG1)
T1 sequence (P09429 1-215): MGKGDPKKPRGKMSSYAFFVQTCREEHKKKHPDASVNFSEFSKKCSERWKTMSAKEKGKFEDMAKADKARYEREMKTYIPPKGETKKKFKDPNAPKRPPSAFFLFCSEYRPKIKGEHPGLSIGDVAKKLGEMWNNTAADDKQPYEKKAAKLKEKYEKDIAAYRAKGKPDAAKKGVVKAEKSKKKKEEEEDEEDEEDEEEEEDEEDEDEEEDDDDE

T2: HMG2 (Bos taurus, UniProt P40673)
T2 construct: from tissue; host or cells: calf thymus (as read from the sentence)
T2 sequence (P40673 1-209): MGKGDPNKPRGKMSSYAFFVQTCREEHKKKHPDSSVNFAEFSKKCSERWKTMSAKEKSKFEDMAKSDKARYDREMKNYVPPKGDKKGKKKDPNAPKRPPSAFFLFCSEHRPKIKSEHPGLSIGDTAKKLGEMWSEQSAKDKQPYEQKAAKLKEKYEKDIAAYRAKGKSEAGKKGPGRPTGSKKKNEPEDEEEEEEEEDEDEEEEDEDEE

B1: S17: human anti-HMG1 antibody; VL/VH aa SEQ ID NO: 70/72 (antibody, listed as Homo sapiens, V domains shown)
VH: EVQLLESGGGLVQPGGSLRLSCAASGFTFSYYDMHWVRQAPGKGLEWVSRISPSGGYTWYADSVKGRFTISRDNSKNTLYLQMNSLRAEDTAVYYCTRGRYTSGWHEYFDPWGQGTLVTVSS
VL: AQDIQMTQSPSSLSASVGDRVTITCRASQSIGTYLNWYQQKPGTAPKVLIYAASSLQSGVPSRFSGSGSGTDFTLTISSLQPEDFSTYYCQQSYNTPRTFGQGTKLEIK
B2: G2: human anti-HMG1 IgG1 from Fab phage display library; VL/VH aa SEQ ID NO: 30/32 (antibody, listed as Homo sapiens, V domains shown)
VH: EVQLLESGGGLVQPGGSLRLSCAASGFTFSWYKMQWVRQAPGKGLEWVSGISPSGGSTAYADSVKGRFTISRDNSKNTLYLQMNSLRAEDTAVYYCAKMGLFNTGNSYVDYWGQGTLVTVSS
VL: AQSELTQPPSVSEAPGQRVTISCSGSTSNIGNNAVIWYQQLPGKAPKLLIYYDDLLPSGVSDRFSGSKSGTSGSLAISGLQSEDEADYYCASWDDNLNGPLFGGGTKLTVL

Key:
[1] = Isoelectric focusing gel electrophoresis; format: physicochemical
[2] = target: T1, recombinant HMG1 binding to RAGE-Fc; test: HMG1 binding to RAGE-Ig by ELISA; settings: at the concentrations tested
Method: HMG1 binding to RAGE-Ig by ELISA: 50 μl/well of RAGE-Fc fusion protein at 5 μg/ml in PBS was added to each well of an ELISA plate and incubated overnight at 4° C. The plate was then blocked with 200 μl of 5% milk at 37° C. for 1 hr and washed 3× with PBS/Tween. 50 μl/well of diluted HMGB1 solution. For dose curves, HMGB1 concentrations started at 4 ug/ml in PBS. For antibody blocking the HMGB1 was preincubated in another plate with human anti-HMG1 antibodies or buffer, then transferred to the RAGE-coated plate. The plates were then incubated at room temperature for 2 hours and washed 3×. To detect any HMG1 bound to the immobilized RAGE-Fc a mixture of biotinylated mouse anti-HMG1 mAbs (10D4, 4H11, 3E10 and 5C12) each at 1 ug/ml, total Ab: 4 ug/ml, were added to each well and the plate was incubated for 1 hour at room temperature. The plate was then washed and Strepavidin-HPR was added to each well and incubated 15 min. The plate was then washed 3× and blotted dry. 100 μl of TMB developing agent was added and the plate read at 650 nm. Values were calculated as percent of inhibition with HMG1 alone equal to 0% inhibition. The data in FIG. 9 and summarized in Table 1 represent the average of two separate experiments.

[3] = test system: HMG1 (recombinant, native; immobilized, soluble); test: Direct and sandwich (capture) ELISA comparing forms of HMG1; format: binding; settings: two ELISA formats, rHMG1
Method: Direct ELISA (immobilized HMG1): Individual wells of a 96-well immunoplate (EIA/RIA plate, High binding, Costar) were coated with HMGB-1 at 5 μg/ml in PBS at 4° C. overnight. The plate was then blocked with 4% milk powder dissolved in PBS at 37° C. for 1 hour. The blocking solution was removed and replaced with human anti-HMG1 antibodies at various concentrations (see FIG. 4A). The plate was then washed (ELX-405 Plate washer, BIO-TEK) and secondary antibody (anti-human IgG-HRP, PIERCE) was added at a final concentration of 1:125,000 at 37° C. for 1 hour. HRP activity was detected with Sureblue HRP substrate (KPL). Plates were read at 450 nm using a Kinetic Microplate Reader (Molecular Devices).
Sandwich ELISA (soluble HMG1): Immunoplates (EIA/RIA plate, High binding, Costar) were coated with anti human IgG Fc at 10 μg/ml in PBS (pH 7.2) and incubated at 4° C. overnight. The coating reagent was removed and the plates were rinsed briefly with PBS. The plates were then blocked with 4% milk for 1 hour at 37° C. and rinsed with PBS. The anti-HMG1 antibodies were diluted in 4% milk. For serial dilutions, the antibodies were used at a starting concentration of 20 μg/ml. The diluted anti-HMG1 antibodies were then added into plate and incubated for 1 hr at 37° C. The plate was then washed 10 times with PBST (PBS/0.1% tween 20) and incubate with antigen (HMGB1, 2 μg/ml; or 0.7 μg/ml for native HMGB1) in 4% milk and incubated at 37° C. for 1 h. The plate was then wash 10 times and incubated with mouse anti-HMGB1, 1 μg/ml in 4% milk at 37° C. for 1 h. The plate was washed 10 times and incubated with anti-mouse IgG-HRP at 1:1000 at 37° C. for 1 h. The plate was then washed and developed. HRP activity was detected with Sureblue HRP substrate (KPL). Plates were read at 450 nm using a Kinetic Microplate Reader (Molecular Devices).

HMG2 = target: T2, HMG2; test: Binding to HMG1 vs. HMG2 ELISA; parameters: species or system calf; settings: immobilized antigen

Molecule | PI [1] | block of recombinant HMG1 binding to RAGE [2] | binding to immobilized versus soluble HMG1 [3] | relative binding to HMG1 and HMG2 (HMG2)
B1 | 8.7 | do not at the concentrations tested | to a lesser extent S17 have a higher affinity for soluble HMG1 | specific for HMG1
B2 | 7.78 | significant ability to block the binding of HMG1 to RAGE | little difference in binding to immobilized or soluble HMG1 | specific for HMG1
